The record followed here is publication doi:10.1101/577437 (bioRxiv, 2019).

This assay has as its target T1, RALA (residues 1-183) (UniProt P11233 1-183).
T1 sequence: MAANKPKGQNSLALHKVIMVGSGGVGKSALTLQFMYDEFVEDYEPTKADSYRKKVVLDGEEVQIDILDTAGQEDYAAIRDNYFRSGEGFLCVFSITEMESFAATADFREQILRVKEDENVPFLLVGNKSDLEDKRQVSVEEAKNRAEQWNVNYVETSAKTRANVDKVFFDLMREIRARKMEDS
Kind of assay: NMR titration.

B1: human RLIP76 RBD (residues 395-517) (domain or fragment)
chain: QAGIKEEIRRQEFLLNCLHRDLQGGIKDLSKEERLWEVQRILTALKRKLREAKRQECETKIAQEIASLSKEDVSKEEMNENEEVINILLAQENEILTEQEELLAMEQFLRRQIASEKEEIERL
Take B1: the binding result was “binds”.
